Measurements as given in publication PMC12375889 (Febs Letters, 2025).

Tests used:
native MS = biological target: the molecule itself; test: native MS
SEC = biological target: the molecule itself; test: SEC

B1: MvoDUF2193 (natural protein, Methanococcus voltae strain A3, UniProt D7DSA4 1-499, looked up)
chain: MKELYEKMINEAMAAQWADVEVIKAKRGTKYKLTDGKPYVDAVQKMEAIGDQCSEVFDLHKNSVKIHYDTLCDLTDTVRPEDDPFVEHYQTPAILEILYNEDPKFREAVEKFIDSVEKNSALIGKEVVRRYGGFYGPTCVVDFALIPGSTSNIVNQILRKTDISEHYKQAILASKSWGMNTSYGIGDKFAHAVEDGKTLEEAIDEEIKTIKMIYDTPIQAQAKLMEEAGHTSFDVLKYMQDYKKKMESTVKKAIDADVNYANIVTVPAYCVGDISHHIAQSTYNMCKDDVIMAIIEATSKVMDNTLRNNIDKYKSEFDVLSLATGSTAAAVEYILELDGFNAPTVVQLLTRRFHNYVQLYPKRGAAAELHNCDFMDMIYRGWKTLDKARRMKNGSGTKLMPMVNDMPVDLDPIAENEVIMNPQRYAYPACAITVRFSSLMRLSDYPCLLTSEPVTATMMTNAIALHKNNPGAPARVCKKCASSCLVDFRHEYCQWRESV
- stoichiometry N (native MS): 2
- stoichiometry N (SEC): 4
